Measured values taken from the supplement of paper PMC10126150.
± gives the standard deviation of the averaged measurements.

Tested on: ATP
Assay: switch fluorescence ratio, 500 uM ATP over buffer (Cy3 cluster intensity, sum of 5 cycles each) (fold (ratio)); higher = stronger signal-on switching upon ATP binding; sequences stand for … in TCGTCGGCAGCGTCAGATGTGTATAAGAGACAGTTTTTTTTTTTTTTTTTTTTTTTTT…TC
Details: aptamer strand: ATP DNA aptamer (quencher-CACCTGGGGGAGTATTGCGGAGGAAGG + anchor), 100 nM annealed; ATP concentration: 500 uM
Summary of the method: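 Switching-strand clusters labelled with Cy3 on a modified Illumina MiSeq flow-cell were annealed to 100 nM quencher-labelled ATP aptamer, imaged in selection buffer, and re-imaged after 15 min with 500 uM ATP at 22 °C. This was done over five cycles with NaOH stripping and re-annealing in between. The fluorescence ratio is summed target-cycle over summed buffer-cycle Cy3 intensity per cluster, averaged per switch-domain sequence, excluding clusters outside 100-1000 RFU.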
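Also: ATP exposure 15 min at 22 °C before imaging.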

Sequence | switch fluorescence ratio
TCATTTCCGG | 1.046 ± 0.0072
GGAAACGGGG | 1.001 ± 0.0064
ATTGTGGTCA | 0.999 ± 0.017
AAGCGTGGGG | 1.02 ± 0.025
TTGGGGTTGT | 1.03 ± 0.12
TATAAGGGGA | 1 ± 0.039
TCATTCGTTT | 1.01 ± 0.016
TAGAGTTTGG | 1 ± 0.045
CCTTATCCG | 1.07 ± 0.068
GAGGTAAGAT | 1.02 ± 0.032
AGGGCGCTAT | 1.05 ± 0.042
TCTTACAATT | 0.971 ± 0.036
TGGTACAAAA | 1.04 ± 0.025
CGTTGATGCT | 1.01 ± 0.02
AGGGATGGTT | 0.982 ± 0.013
CAAGATGTTG | 0.987 ± 0.047
TTAAACGGAC | 1.36 ± 0.021
TCGACCTTCT | 1.77 ± 0.17
AGAGCCGGTG | 1 ± 0.041
AATATGAATT | 1.01 ± 0.016
TGGAAAAGTT | 0.993 ± 0.017
AGGCGCAGGG | 0.9982 ± 0.0089
TTTGTTCACA | 1.06 ± 0.043
CACTTAACAG | 1.1 ± 0.017
CTAGGTGGCT | 1.02 ± 0.073

Sequence | switch fluorescence ratio
CGAACGGATT | 1.06 ± 0.054
TTGACGTATA | 1.96 ± 1.2
GGTGTGGAAT | 1.02 ± 0.033
AAAGGATAAG | 0.993 ± 0.038
ATTGCAATGG | 1.6 ± 0.034
AAAGTTTATG | 1.007 ± 0.0053
ATAAAGCGGC | 0.994 ± 0.047
AGTTTGTGGC | 0.965 ± 0.012
AATCGGGCAA | 1.34 ± 0.03
CATAGGTTGC | 0.983 ± 0.041
CGTTCGCCGG | 0.99801 ± 8.6e-05
CAAAATACGG | 1.07 ± 0.052
GCAAGGGGGT | 1.05 ± 0.053
GCATGTAGTG | 0.9794 ± 0.005
CTAGGTAACG | 1.02 ± 0.033
TGTTTTGATC | 0.977 ± 0.029
CAGGGCGTTC | 0.9856 ± 0.0044
CGGCAAGGCT | 1.22 ± 0.1
AGGGGGGGGC | 1.04 ± 0.13
GCTTCGGCGC | 1.03 ± 0.046
AGTTCTAGGA | 0.953 ± 0.03
TGGTTCAGGT | 1.02 ± 0.022
GAATTTTTTC | 1.02 ± 0.016
TGTAGCTTGT | 1.09 ± 0.075
ACGGGAAGGG | 1.05 ± 0.03

Sequence | switch fluorescence ratio
GAAAGTGAGA | 1.01 ± 0.056
GAGAATGTGT | 0.994 ± 0.012
ATAGGCTAAA | 1.04 ± 0.044
CTTTTTGGTA | 0.9975 ± 0.0084
TTGGATTAGG | 1.01 ± 0.024
TCCCCGTCTG | 1.14 ± 0.15
ATTGCGTGGT | 0.986 ± 0.024
TGGTTCAGTG | 0.993 ± 0.048
TAAAAAGA | 0.9496 ± 0.005
AGGGGTACGC | 0.95 ± 0.091
CTGCTTGGTT | 1.001 ± 0.0047
GCATGGAAAT | 0.985 ± 0.045
TAGTTGGATG | 1 ± 0.038
AGAACTTAAG | 1.01 ± 0.037
AGGGGGGAC | 0.9875 ± 0.0048
TCGGTTAAGT | 1.02 ± 0.031
AAGAGCGGTG | 0.952 ± 0.0049
ATCGGGTGTG | 0.9871 ± 0.0015
GTATATCTGT | 1.01 ± 0.052
TAAAGCAGGA | 0.993 ± 0.03
GGTTATGGTA | 0.9715 ± 0.0063
AGAGGCTGAT | 0.983 ± 0.014
TTCAATGGTT | 1.02 ± 0.035
TTGTTTGTTG | 0.994 ± 0.019
TGAACGTTTT | 1.04 ± 0.029

Sequence | switch fluorescence ratio
GCAGGGGGGT | 1.01 ± 0.034
TGGTTGTGAG | 1 ± 0.0065
TTCGCTTTTT | 0.991 ± 0.032
TTTAGACCCT | 1.013 ± 0.0046
TAATGGTTGA | 1.02 ± 0.029
GCTAACGGTT | 0.981 ± 0.011
GTTGTAATAG | 1.09 ± 0.031
TTTCTATGGT | 1.003 ± 0.0073
CAAGGGAGGG | 0.991 ± 0.047
ATCTGAAGGT | 0.975 ± 0.031
CGCTGACATT | 1.019 ± 0.0034
ACATTGGCGA | 0.988 ± 0.044
CTTGTGGATG | 1 ± 0.029
TTTGACAGTA | 1.07 ± 0.061
TATAGTGGCC | 0.998 ± 0.022
GCCGCAGTTT | 1.31 ± 0.18
AACTTGGGGA | 0.9657 ± 0.0061
TAGTGTTTGT | 0.979 ± 0.017
TGTTGGGGAC | 1.023 ± 0.0065
TCTGGAGCCG | 1.04 ± 0.022
GGATTAGGTA | 1 ± 0.021
GGGGGTCAAT | 1.02 ± 0.04
AGTTGCACGT | 0.954 ± 0.041
AGTTAGTTAG | 0.987 ± 0.011
AGGCGCTAT | 1.04 ± 0.021

Sequence | switch fluorescence ratio
TTTTAGGTCG | 0.987 ± 0.013
GATTCATGTT | 0.998 ± 0.013
GGGGTGTTGC | 0.999 ± 0.056
AGTTTGCCAG | 0.96403 ± 0.00025
CGGGAGAGAG | 1.03 ± 0.014
TTGGTAAAAG | 1.02 ± 0.033
GCCCCGGGGT | 1.03 ± 0.056
ACTATTGGGT | 0.988 ± 0.015
ATTTGGGTGA | 1.03 ± 0.047
CGGAACCACG | 1.08 ± 0.045
ATCGCTTGAG | 0.9725 ± 0.0034
GCCAACAGTG | 1.32 ± 0.12
CTAGAAGGCG | 1.02 ± 0.052
ATAATGTATA | 0.9835 ± 0.0028
TTATGTGGGT | 0.989 ± 0.029
GAGGGATCAG | 0.994 ± 0.011
AGTTGTGAGT | 0.9726 ± 0.0077
ATGATGCTGG | 1.02 ± 0.077
GGTAACCTTT | 1.43 ± 0.58
TTTGGTCCGG | 1.01 ± 0.029
TATATGGAAG | 0.984 ± 0.03
TGCTGAAATG | 1.03 ± 0.07
TTTTAGGGCC | 0.999 ± 0.05
TTGGATTGTT | 1.04 ± 0.025
TCCTTGTAAG | 1.01 ± 0.03

Sequence | switch fluorescence ratio
AGGGCTAATA | 1.009 ± 0.0081
TGGGTGTATA | 1.01 ± 0.017
CATGAGTATT | 0.954 ± 0.033
AAGCCCGGGG | 1.02 ± 0.025
AGCAGTGACT | 1.13 ± 0.036
CTGAACTATG | 1 ± 0.056
TGATTGTTGG | 1.01 ± 0.012
ATTTTAAGGG | 1.003 ± 0.0042
CAATGCGTAT | 1.01 ± 0.07
TAAGCAAAAG | 1.19 ± 0.1
AGTTAGACAG | 0.9737 ± 0.0062
GGGTGGGGAG | 0.984 ± 0.045
TCAGAATCTA | 1 ± 0.015
AAAAGTTATT | 0.986 ± 0.027
ATTACCCTCG | 1.02 ± 0.035
ACACGTTACA | 1.62 ± 0.082
CTGTGGGTCC | 0.976 ± 0.034
TTCCATGGTC | 1.02 ± 0.014
TAAGATAAAT | 1 ± 0.021
AGAGCTGCCT | 1.06 ± 0.042
ATCTACGAAA | 1.31 ± 0.03
ATATGAATA | 0.9987 ± 0.0037
CGTTCTGGTC | 0.999 ± 0.046
GAGGGGTTGA | 1.01 ± 0.077
TGCTCGGTTT | 0.998 ± 0.045

Sequence | switch fluorescence ratio
CCCCACTGTG | 1.53 ± 0.69
TAGGGCAGGT | 1.01 ± 0.036
TTTTATTGGA | 1 ± 0.03
ATGTTTTGGG | 1.01 ± 0.024
TTTTTAGCCG | 1.04 ± 0.075
TCCGTTTCGG | 0.997 ± 0.047
AGCGGGGTTC | 1.023 ± 0.0049
TTAGGAGCGG | 1.04 ± 0.047
AAGTGGCTGG | 0.991 ± 0.038
AACTGGGGC | 0.959 ± 0.062
TCGGGAGTTG | 0.952 ± 0.024
ACATAGATTA | 1.03 ± 0.016
AATGCTGACA | 1 ± 0.016
CCGTTGGATT | 0.983 ± 0.01
AGGCTTGCGC | 1.01 ± 0.037
GGGTTAAGCA | 0.9961 ± 0.0055
ACTAAATAAA | 1.14 ± 0.23
GTTCTAGGTT | 0.9961 ± 0.0044
TTGAGGTCTT | 0.964 ± 0.024
ATTATGTTTA | 1 ± 0.022
CTCTATTGGG | 0.993 ± 0.014
GGTATTCAGG | 1.03 ± 0.018
TTAAGGCCGG | 1.03 ± 0.025
TTATCGGTGT | 0.968 ± 0.038
CCAGTAGTTA | 0.999 ± 0.015

Sequence | switch fluorescence ratio
GCAGGGAGCG | 0.978 ± 0.027
TGCATTTTTT | 0.981 ± 0.034
ATGAGTCGGA | 0.975 ± 0.055
GGGAACGGTA | 0.9955 ± 0.0076
CGTTTAGGCA | 1.02 ± 0.024
TGCCGTTTGC | 0.965 ± 0.029
CTGTTTTTGT | 1.01 ± 0.024
ACTGGCAGGG | 1.01 ± 0.028
TCCTGTCTTT | 1.01 ± 0.014
GAGTTAGTTA | 0.989 ± 0.028
ATTTTTTGGA | 1.01 ± 0.026
AGGTCGGCA | 0.9919 ± 0.0092
CGGGTGAGCA | 0.996 ± 0.026
GGCTCATTGA | 0.984 ± 0.029
TAGGGATTTC | 0.997 ± 0.019
GAAATATGTG | 0.9885 ± 0.0022
CGGGTACATG | 1.03 ± 0.048
AGACGGTATT | 1.056 ± 0.0039
ATGTTATGG | 1.01 ± 0.011
AAAAGCTACT | 1.06 ± 0.053
CAATTATATG | 0.9961 ± 0.0071
TAAAAAATAG | 1.043 ± 0.0086
CACTCTACGA | 1.41 ± 0.073
GTCAGGGGGT | 1.04 ± 0.068
GGGAACAGGG | 1.003 ± 0.0024
